From PMC2715225 (Nucleic Acids Research, 2009)

Molecular target: T1, His6-tagged human PSF (human, UniProt P23246 1-707)
T1 sequence (looked up): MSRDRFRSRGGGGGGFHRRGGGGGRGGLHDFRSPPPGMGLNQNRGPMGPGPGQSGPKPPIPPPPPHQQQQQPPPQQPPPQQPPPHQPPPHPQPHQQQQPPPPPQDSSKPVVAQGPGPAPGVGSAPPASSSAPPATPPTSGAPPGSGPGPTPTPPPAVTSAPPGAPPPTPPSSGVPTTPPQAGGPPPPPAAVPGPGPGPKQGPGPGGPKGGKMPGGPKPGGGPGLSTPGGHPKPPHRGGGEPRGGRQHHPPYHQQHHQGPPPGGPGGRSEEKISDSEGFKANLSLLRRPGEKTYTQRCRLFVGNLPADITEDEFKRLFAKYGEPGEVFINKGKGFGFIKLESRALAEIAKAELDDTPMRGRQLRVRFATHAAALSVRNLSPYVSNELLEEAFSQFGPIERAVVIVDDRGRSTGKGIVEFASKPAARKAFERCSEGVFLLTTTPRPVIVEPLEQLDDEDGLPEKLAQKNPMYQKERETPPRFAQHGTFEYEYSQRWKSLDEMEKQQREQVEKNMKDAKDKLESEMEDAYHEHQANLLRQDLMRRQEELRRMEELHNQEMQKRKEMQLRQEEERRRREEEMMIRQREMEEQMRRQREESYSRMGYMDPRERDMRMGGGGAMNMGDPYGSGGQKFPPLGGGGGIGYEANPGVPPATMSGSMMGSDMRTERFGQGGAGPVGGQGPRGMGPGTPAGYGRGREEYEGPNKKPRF
Experiment: pull-down

B1: Human RAD51 without His6 tag (natural protein, UniProt Q06609 1-339, looked up)
chain: MAMQMQLEANADTSVEEESFGPQPISRLEQCGINANDVKKLEEAGFHTVEAVAYAPKKELINIKGISEAKADKILAEAAKLVPMGFTTATEFHQRRSEIIQITTGSKELDKLLQGGIETGSITEMFGEFRTGKTQICHTLAVTCQLPIDRGGGEGKAMYIDTEGTFRPERLLAVAERYGLSGSDVLDNVAYARAFNTDHQTQLLYQASAMMVESRYALLIVDSATALYRTDYSGRGELSARQMHLARFLRMLLRLADEFGVAVVITNQVVAQVDGAAMFAADPKKPIGGNIIAHASTTRLYLRKGRGETRICKIYDSPCLPEAEAMFAINADGVGDAKD
  stoichiometry N: ~1 PSF:RAD51
